Here are results for one substance from PMC8568656.

The test addresses DOPAL-derived αS oligomers (αS incubated with 3,4-dihydroxyphenylacetaldehyde). The experiment in a line: SDS-PAGE of SEC fractions.

With “DOPAL-derived αS oligomers (αS incubated with 3,4-dihydroxyphenylacetaldehyde)”, the stoichiometry N – broadly, the number of molecules, sites or subunits per partner or assembly – worked out at 2.
